The target in assay [1] is T1, human sclerostin protein (R&D SYSTEM, 1406-ST/CF) (human, UniProt Q9BQB4 24-213, biotinylated in the LRP-6 blocking assay; not labelled in Biacore).
T1 sequence (looked up): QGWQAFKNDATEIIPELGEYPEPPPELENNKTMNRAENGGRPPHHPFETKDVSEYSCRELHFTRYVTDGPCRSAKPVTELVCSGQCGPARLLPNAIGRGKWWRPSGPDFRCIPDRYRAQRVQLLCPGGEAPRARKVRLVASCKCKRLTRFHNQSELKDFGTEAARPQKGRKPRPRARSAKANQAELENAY
The assay can be described thus: cell-based or functional assay.

The target in assay [2] is T2, cynomolgus monkey sclerostin with a Flag tag (cyno-SOST-Flag) (cynomolgus monkey).
T2 construct: also called monkey SOST
The assay can be described thus: competition ELISA: antibody blocks binding of monkey sclerostin to captured LRP-6-Fc. Here is the method: (§1) In the method, goat anti-human Fc antibody was coated onto a 96-well EIA/RIA plate, and then LRP-6-Fc fusion protein was added for incubation. The biotinylated sclerostin protein and the anti-sclerostin antibody were co-incubated, and then added to the plate for incubation. After washing the plate, the binding amount between biotinylated sclerostin and LRP-6 was measured, and the IC₅₀ value of the blocking activity of the sclerostin antibody was calculated.
(§2) The goat anti-human Fc antibody was diluted to a concentration of 1 μg/ml with PBS buffer at pH 7.4 (Sigma, P4417-100TAB), and added to a 96-well EIA/RIA plate at a volume of 100 μl/well. Then, the plate was incubated at 37° C. for 2 hours. After discarding the liquid, the plates were blocked with 200 μl/well of blocking solution containing 5% skim milk (Guangming skim milk) in PBS, and incubated at 37° C. for 2.5 hours. After blocking, the blocking solution was discarded and the plate was washed 5 times with PBST buffer (pH 7.4 PBS containing 0.05% tween-20). LPR-6-Fc fusion protein (R&D SYSTEM, 1505-LRP-025) was diluted with sample dilution buffer (pH 7.4 PBS containing 1% BSA) to 1 μg/ml and 50 μl/well was added, then the plate was incubated at 37° C. for 2 hours. […]
In general terms: ELISA stands for enzyme-linked immunosorbent assay.

The target of assay [3] is T1, human sclerostin protein (R&D SYSTEM, …). The assay can be described thus: competition ELISA: antibody blocks binding of biotinylated human sclerostin to captured LRP-6-Fc. Here is the method:
as §1, §2

Assay [4] concerns the target T2, cynomolgus monkey sclerostin with a …. The assay can be described thus: SPR (Biacore X100), antibody captured by anti-human antibody, SOST as analyte, 1:1 Langmuir fit. From the text: (§3) The anti-human capture antibody was covalently linked to the CMS biosensor chip (Cat. #BR-1000-12, GE) of a Biacore instrument (Biacore X100, GE) according to the method described in the instructions of anti-human trapping kit (GE, Cat.# BR-1008-39) for affinity capturing an amount of a test antibody. Then, a gradient of concentrations of SOST antigen (human SOST, R&D SYSTEM, Cat.#1406-ST-025/CF, R&D; monkey SOST, cyno-SOST-Flag, obtained by purification, encoded by SEQ ID NO: 4 of Example 1; murine SOST, m-SOST-Flag, obtained by purification, encoded by SEQ ID NO: 3 of Example 1) were flowed through the surface of the biochip. The reaction signal was detected in real-time using a Biacore instrument (GE, BiacoreX100) to obtain the association and dissociation curves. After each cycle of dissociation was finished in the experiment, the biochip was washed and regenerated with regeneration solution in the anti-human capture kit.
(§4) The amino-coupled kit used in the experiments was purchased from GE (Cat. #BR-1000-50, GE), and the buffer was HBS-EP+10× buffer solution (Cat. #BR-1006-69, GE), and the buffer was diluted to 1× (pH 7.4) with D.I. Water.
(§5) The data obtained was fitted by GE BlAevaluation version 4.1 software using a 1:1 Langmuir model, and the affinity value was generated.
(In SPR one partner is held on a chip, and binding of the other changes the refractive index at the surface.)

In assay [5] the target is T1, human sclerostin protein (R&D SYSTEM, …). The assay is described as above.
Description: as §3, §4, §5

Assay [6] deals with T3, human sclerostin with a Flag tag (h-SOST-Flag) (human, UniProt Q9BQB4 24-213, biotinylated (biotin labeling kit) in the ELISA).
T3 construct: also called SOST-FLAG protein; not shown: C-terminal Flag tag
T3 sequence (looked up): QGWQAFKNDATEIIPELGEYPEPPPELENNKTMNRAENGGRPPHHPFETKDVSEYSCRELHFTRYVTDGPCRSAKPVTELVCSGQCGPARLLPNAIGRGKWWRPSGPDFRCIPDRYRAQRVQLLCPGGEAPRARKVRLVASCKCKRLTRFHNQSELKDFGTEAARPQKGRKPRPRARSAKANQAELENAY
The experiment in a line: binding ELISA, biotinylated h-SOST-Flag on streptavidin plate. Here is the method: (§6) ELISA experiments were used to detect the binding properties of sclerostin antibodies. Sclerostin with a Flag tag (h-SOST-FLAG, encoded by SEQID NO: 2) was biotinylated with a biotin labeling kit (Dojido Chem, LK03), and immobilized onto a 96-well EIA/RIA plate via binding to streptavidin coated on it. After the antibody was added, the strength of the signal was used to determine the binding activity between the antibody and human sclerostin.
Streptavidin (Sigma, S4762-5MG) was diluted to a concentration of 5 μg/ml with PBS buffer at pH 7.4 (Sigma, P4417-100TAB), and added to a 96-well EIA/RIA plate (Corning,CLS3590-100EA) at a volume of 50 μl/well. Then, the plate was incubated in an incubator at 37° C. for 2 hours. The liquid was discarded, the plates were blocked with 200 μl/well of blocking solution containing 5% skim milk (Guangming skim milk) in PBS, and incubated in an incubator at 37° C. for 2.5 hours or overnight (16-18 hours) at 4° C. After blocking, the blocking solution was discarded and the plate was washed 5 times with PBST buffer (pH 7.4 PBS containing 0.05% tween-20). Biotinylated SOST-FLAG protein (R&D SYSTEM, 1505-LR-025) was diluted with sample dilution buffer (pH 7.4 PBS containing 1% BSA) to 0.5 μg/ml and was added to each well at 50 μl/well, then the plate was incubated in the incubator at 37° C. for 2 hours. After incubation, the reaction solution in the plate was discarded, and the plate was washed with PBST 6 times, and then 50 μl/well of gradient dilution antibody with sample dilution buffer was added, and the plate was incubated in a incubator at 37° C. for 2 hours. The plate was washed 6 times with PBST after incubation, added with 100 μl/well of HRP-labeled goat anti-mouse (Jackson Immuno Research, Cat No. 115-035-003) or HRP-labeled goat anti-human secondary antibody (Jackson Immuno Research, Cat No. 109-035-003) diluted in sample dilution, and incubated at 37° C. for 1 hour. After washing the plates with PBST 6 times, 50 μl/well of TMB substrate (KPL, Cat No. 52-00-03) was added to each well, and incubated at room temperature for 10-15 min, and the reaction was stopped by adding 50 μl 1M H₂SO₄ to each well. The OD value at a wavelength of 450 nm was read on a NOVOStar microplate reader, and then EC₅₀ values of the binding between the sclerostin antibody of the present invention and human sclerostin were calculated.

In assay [7] the target is T1, human sclerostin protein (R&D SYSTEM, …). The experiment in a line: competition ELISA: antibody blocks binding of biotinylated human sclerostin to captured LRP-6-Fc (Test Example 2). Here is the method: as §1, §2
Assay [8] deals with T3, human sclerostin with a Flag tag …. The experiment in a line: binding ELISA, biotinylated h-SOST-Flag on streptavidin plate (Test Example 1). Here is the method:
as §6
Streptavidin (Sigma, S4762-5MG) was diluted to a concentration of 5 μg/ml with PBS buffer at pH 7.4 (Sigma, P4417-100TAB), and added to a 96-well EIA/RIA plate (Corning,CLS3590-100EA) at a volume of 50 μl/well. Then, the plate was incubated in an incubator at 37° C. for 2 hours. The liquid was discarded, the plates were blocked with 200 μl/well of blocking solution containing 5% skim milk (Guangming skim milk) in PBS, and incubated in an incubator at 37° C. for 2.5 hours or overnight (16-18 hours) at 4° C. After blocking, the blocking solution was discarded and the plate was washed 5 times with PBST buffer (pH 7.4 PBS containing 0.05% tween-20). […] The OD value at a wavelength of 450 nm was read on a NOVOStar microplate reader, and then EC₅₀ values of the binding between the sclerostin antibody of the present invention and human sclerostin were calculated.

Assay [9] has as its target T2, cynomolgus monkey sclerostin with a …. The assay can be described thus: SPR (Biacore).
For assay [10], the target named is T1, human sclerostin protein (R&D SYSTEM, …). The experiment in a line: SPR (Biacore).

B1: Romosozumab (antibody, V domains shown)
VH: EVQLVQSGAEVKKPGASVKVSCKASGYTFTDYNMHWVRQAPGQGLEWMGEINPNSGGAGYNQKFKGRVTMTTDTSTSTAYMELRSLRSDDTAVYYCARLGYDDIYDDWYFDVWGQGTTVTVSS
VL: DIQMTQSPSSLSASVGDRVTITCRASQDISNYLNWYQQKPGKAPKLLIYYTSRLLSGVPSRFSGSGSGTDFTLTISSLQPEDFATYYCQQGDTLPYTFGGGTKVEIK
The term IC50 denotes the concentration that gives 50% inhibition. Usually Kd stands for a measure of binding affinity in units of concentration. For the molecule B1, the “Cell activity EC50 (nM): alkaline phosphatase (ALP) activity in C2C12 cells given wnt3a and SOST” value in assay [1] stood at 71.6 nM. Besides, the IC50 in [2] stood at 46.8 nM; in assay [3], 27.9 nM. Further, the Kd was 0.52 nM in [4] and 0.67 nM in assay [5].

B2: murine anti-human sclerostin monoclonal antibody Ab-1 (antibody, V domains shown)
VH: EVQLQQSGPELVKPGTSVKIPCQTSGYTFTDYNLDWLKQRPGESLEWIGDIDPNNGDILYNQKFRDKATLTVDTSSNTAYLELRSLTSEDTAVYYCARRWAYYFDYWGQGTTLTISS
VL: NIVMTQTPKLLFVSAGDRITITCKASQSVSNDVAWYQQKPGQSPKLLIYYTSNRFTGVPDRFTGSGYGTDFTLTINTVQAEDLAVYFCQQDYSSPVTFGAGTKLELK
notes: Mouse hybridoma antibody; also called parental antibody; murine antibody
For orientation: EC50 means the concentration that produces a half-maximal response. Consider B2, for which the EC50 in assay [6] and in [8] was 0.701 nM each time. In addition, the half-maximal inhibitory concentration (IC50) in assay [7] is 9.91 nM.

B3: humanized antibody Ab-5 (antibody, human IgG4 S228P, kappa, V domains shown)
VH: EVQLVQSGAEVKKPGASVKVSCKASGYTFTDYNLDWLRQAPGEGLEWIGDIDPNDGDILYNQKFRDRVTMTTDTSTSTAYMELRSLRSDDTAVYYCARRWAYYFDYWGQGTTVTVSS
VL: DIVMTQSPSSLSASVGDRVTITCKASQSVSNDVAWYQQKPGKSPKLLIYYTSNRFTGVPDRFSGSGSGTDFTLTISSLQPEDFATYFCQQDYSSPVTFGGGTKVEIKR
notes: also called humanized anti-SOST antibody
In the case of B3, the “fold affinity against the positive molecule (Romosozumab)” value in [9] was over 10 times; in [10] it was about 10 times. Further, the “Cell activity EC50 (nM): alkaline phosphatase (ALP) activity in C2C12 cells given wnt3a and SOST” value in assay [1] was found to be 84.7 nM. Moreover, the EC50 in [6] amounted to 0.63 nM. For the same molecule, the IC50 came to 110 nM in assay [2] and 23.5 nM in assay [3]. Further, the results for the Kd in assay [4] and in assay [5] were 0.03 nM and 0.064 nM, respectively.

B4: humanized antibody Ab-10 (antibody, human IgG1, kappa, V domains shown)
VH: EVQLVQSGAEVKKPGASVKVSCKASGYTFTDYNLDWVRQAPGQGLEWMGDIDPNNGDILYNQKFRDRVTMTTDTSTSTAYMELRSLRSDDTAVYYCARRWAYYFDYWGQGTTVTVSS
VL: DIQMTQSPSSLSASVGDRVTITCKASQSVSNDVAWYQQKPGKAPKLLIYYTSNRFTGVPSRFSGSGSGTDFTLTISSLQPEDFATYYCQQDYSSPVTFGGGTKVEIKR
Turning to B4, a half-maximal response in [6] (EC50) required 0.54 nM.

B5: humanized antibody Ab-9 (antibody, human IgG4 S228P, kappa, V domains shown)
VH: EVQLVQSGAEVKKPGASVKVSCKASGYTFTDYNLDWLRQAPGEGLEWIGDIDPNNGDILYNQKFRDRVTMTTDTSTSTAYMELRSLRSDDTAVYYCARRWAYYFDYWGQGTTVTVSS
VL: NIVMTQSPSSLSASVGDRVTITCKASQSVSNDVAWYQQKPGKSPKLLIYYTSNRFTGVPDRFSGSGSGTDFTLTISSLQPEDFATYFCQQDYSSPVTFGGGTKVEIKR
B5: the half-maximal effective concentration (EC50) in assay [6] was 0.4 nM.

These data come from patent US20180099046A1 (JIANGSU HENGRUI MEDICINE, published 2018).
